Experimental data published in the supplement of paper PMC9112550, “Optimization of the antimicrobial peptide Bac7 by deep mutational scanning” (BMC Biology, 2022).

Test system: Escherichia coli TOP10
Assay: shrunken log2 fold change of peptide-encoding DNA abundance (4.5 h post-induction vs induction); higher = less antimicrobial activity (less host growth inhibition)
Conditions: time post-induction: 4.5 h; library: site-saturation at positions 5, 18, 19, 20
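Further: peptides expressed intracellularly from a pBAD plasmid library in pooled LB shake-flask culture, induced with 0.3% L-arabinose, DNA abundance read by NGS, three biological replicates, DESeq2 with apeglm shrinkage.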

RRIRSRPPRLPRPRPRPCESPRP
shrunken log2 fold change: -0.0178

RRIRSRPPRLPRPRPRPCFAPRP
shrunken log2 fold change: 0.598

RRIRSRPPRLPRPRPRPCFHPRP
shrunken log2 fold change: -0.749

RRIRSRPPRLPRPRPRPCGFPRP
shrunken log2 fold change: -0.0141

RRIRSRPPRLPRPRPRPCHRPRP
shrunken log2 fold change: -0.0558

RRIRSRPPRLPRPRPRPCHVPRP
shrunken log2 fold change: -0.0349

RRIRSRPPRLPRPRPRPCIRPRP
shrunken log2 fold change: -0.416

RRIRSRPPRLPRPRPRPCLIPRP
shrunken log2 fold change: -0.197

RRIRSRPPRLPRPRPRPCNEPRP
shrunken log2 fold change: -1.09

RRIRSRPPRLPRPRPRPCNLPRP
shrunken log2 fold change: -0.561

RRIRSRPPRLPRPRPRPCNTPRP
shrunken log2 fold change: -0.324

RRIRSRPPRLPRPRPRPCPRPRP
shrunken log2 fold change: 0.056

RRIRSRPPRLPRPRPRPCQKPRP
shrunken log2 fold change: 0.185

RRIRSRPPRLPRPRPRPCRRPRP
shrunken log2 fold change: -0.241

RRIRSRPPRLPRPRPRPCRTPRP
shrunken log2 fold change: -0.2

RRIRSRPPRLPRPRPRPCSMPRP
shrunken log2 fold change: -0.441

RRIRSRPPRLPRPRPRPCVQPRP
shrunken log2 fold change: -0.0792

RRIRSRPPRLPRPRPRPCWYPRP
shrunken log2 fold change: -0.393

RRIRSRPPRLPRPRPRPCYPPRP
shrunken log2 fold change: -0.264

RRIRSRPPRLPRPRPRPDANPRP
shrunken log2 fold change: 0.183

RRIRSRPPRLPRPRPRPDAQPRP
shrunken log2 fold change: 0.406

RRIRSRPPRLPRPRPRPDCDPRP
shrunken log2 fold change: 0.152

RRIRSRPPRLPRPRPRPDCNPRP
shrunken log2 fold change: 0.265

RRIRSRPPRLPRPRPRPDCTPRP
shrunken log2 fold change: 0.038

RRIRSRPPRLPRPRPRPDDDPRP
shrunken log2 fold change: -0.0062

RRIRSRPPRLPRPRPRPDDEPRP
shrunken log2 fold change: 0.0222

RRIRSRPPRLPRPRPRPDGWPRP
shrunken log2 fold change: 0.278

RRIRSRPPRLPRPRPRPDHCPRP
shrunken log2 fold change: -0.0225

RRIRSRPPRLPRPRPRPDHHPRP
shrunken log2 fold change: -0.868

RRIRSRPPRLPRPRPRPDIGPRP
shrunken log2 fold change: -0.113

RRIRSRPPRLPRPRPRPDKHPRP
shrunken log2 fold change: -0.402

RRIRSRPPRLPRPRPRPDKVPRP
shrunken log2 fold change: 0.151

RRIRSRPPRLPRPRPRPDLCPRP
shrunken log2 fold change: -0.159

RRIRSRPPRLPRPRPRPDMWPRP
shrunken log2 fold change: -0.409

RRIRSRPPRLPRPRPRPDNRPRP
shrunken log2 fold change: -0.00987

RRIRSRPPRLPRPRPRPDPPPRP
shrunken log2 fold change: 0.746

RRIRSRPPRLPRPRPRPDPYPRP
shrunken log2 fold change: -0.312

RRIRSRPPRLPRPRPRPDQMPRP
shrunken log2 fold change: 0.049

RRIRSRPPRLPRPRPRPDQTPRP
shrunken log2 fold change: 0.0249

RRIRSRPPRLPRPRPRPDRQPRP
shrunken log2 fold change: -0.0702

RRIRSRPPRLPRPRPRPDSEPRP
shrunken log2 fold change: 0.139

RRIRSRPPRLPRPRPRPDVHPRP
shrunken log2 fold change: -0.0954

RRIRSRPPRLPRPRPRPDWEPRP
shrunken log2 fold change: -0.0106

RRIRSRPPRLPRPRPRPDWHPRP
shrunken log2 fold change: -0.195

RRIRSRPPRLPRPRPRPDWLPRP
shrunken log2 fold change: 0.153

RRIRSRPPRLPRPRPRPDWRPRP
shrunken log2 fold change: 0.132

RRIRSRPPRLPRPRPRPECYPRP
shrunken log2 fold change: 0.133

RRIRSRPPRLPRPRPRPEDWPRP
shrunken log2 fold change: 0.802

RRIRSRPPRLPRPRPRPEERPRP
shrunken log2 fold change: 0.826

RRIRSRPPRLPRPRPRPEFRPRP
shrunken log2 fold change: 0.15

RRIRSRPPRLPRPRPRPEHCPRP
shrunken log2 fold change: -0.0141

RRIRSRPPRLPRPRPRPEHLPRP
shrunken log2 fold change: -0.258

RRIRSRPPRLPRPRPRPEIDPRP
shrunken log2 fold change: 0.166

RRIRSRPPRLPRPRPRPEKCPRP
shrunken log2 fold change: -0.0875

RRIRSRPPRLPRPRPRPEKHPRP
shrunken log2 fold change: -0.211

RRIRSRPPRLPRPRPRPEKRPRP
shrunken log2 fold change: -0.0813

RRIRSRPPRLPRPRPRPENLPRP
shrunken log2 fold change: 0.026

RRIRSRPPRLPRPRPRPEQKPRP
shrunken log2 fold change: 0.0179

RRIRSRPPRLPRPRPRPEQRPRP
shrunken log2 fold change: -0.011

RRIRSRPPRLPRPRPRPEQTPRP
shrunken log2 fold change: 0.709

RRIRSRPPRLPRPRPRPERKPRP
shrunken log2 fold change: -0.0872

RRIRSRPPRLPRPRPRPESTPRP
shrunken log2 fold change: 0.0707

RRIRSRPPRLPRPRPRPETRPRP
shrunken log2 fold change: 0.192

RRIRSRPPRLPRPRPRPEVCPRP
shrunken log2 fold change: 0.11

RRIRSRPPRLPRPRPRPEWRPRP
shrunken log2 fold change: 0.478

RRIRSRPPRLPRPRPRPFCGPRP
shrunken log2 fold change: -0.201

RRIRSRPPRLPRPRPRPFCIPRP
shrunken log2 fold change: -0.316

RRIRSRPPRLPRPRPRPFDDPRP
shrunken log2 fold change: -0.0842

RRIRSRPPRLPRPRPRPFEEPRP
shrunken log2 fold change: -0.345

RRIRSRPPRLPRPRPRPFHLPRP
shrunken log2 fold change: -0.321

RRIRSRPPRLPRPRPRPFHTPRP
shrunken log2 fold change: -0.232

RRIRSRPPRLPRPRPRPFIGPRP
shrunken log2 fold change: -1.15

RRIRSRPPRLPRPRPRPFKWPRP
shrunken log2 fold change: -0.24

RRIRSRPPRLPRPRPRPFLNPRP
shrunken log2 fold change: -1.03

RRIRSRPPRLPRPRPRPFMIPRP
shrunken log2 fold change: -0.184

RRIRSRPPRLPRPRPRPFPDPRP
shrunken log2 fold change: -0.319

RRIRSRPPRLPRPRPRPFPKPRP
shrunken log2 fold change: 0.107

RRIRSRPPRLPRPRPRPFPNPRP
shrunken log2 fold change: -0.133

RRIRSRPPRLPRPRPRPFQDPRP
shrunken log2 fold change: -0.01

RRIRSRPPRLPRPRPRPFQIPRP
shrunken log2 fold change: 0.0213

RRIRSRPPRLPRPRPRPFQLPRP
shrunken log2 fold change: -0.0513

RRIRSRPPRLPRPRPRPFQTPRP
shrunken log2 fold change: -0.266

RRIRSRPPRLPRPRPRPFRFPRP
shrunken log2 fold change: -0.21

RRIRSRPPRLPRPRPRPFRRPRP
shrunken log2 fold change: -0.261

RRIRSRPPRLPRPRPRPFSWPRP
shrunken log2 fold change: -0.197

RRIRSRPPRLPRPRPRPFTYPRP
shrunken log2 fold change: -0.0179

RRIRSRPPRLPRPRPRPFVLPRP
shrunken log2 fold change: -0.215

RRIRSRPPRLPRPRPRPFVPPRP
shrunken log2 fold change: -0.27

RRIRSRPPRLPRPRPRPFVVPRP
shrunken log2 fold change: -0.0648

RRIRSRPPRLPRPRPRPFVYPRP
shrunken log2 fold change: -0.368

RRIRSRPPRLPRPRPRPFWRPRP
shrunken log2 fold change: 0.0559

RRIRSRPPRLPRPRPRPGAIPRP
shrunken log2 fold change: 0.187

RRIRSRPPRLPRPRPRPGCCPRP
shrunken log2 fold change: 0.396

RRIRSRPPRLPRPRPRPGDPPRP
shrunken log2 fold change: 0.353

RRIRSRPPRLPRPRPRPGDQPRP
shrunken log2 fold change: 0.0164

RRIRSRPPRLPRPRPRPGFDPRP
shrunken log2 fold change: 0.455

RRIRSRPPRLPRPRPRPGIMPRP
shrunken log2 fold change: -0.334

RRIRSRPPRLPRPRPRPGINPRP
shrunken log2 fold change: 0.00688

RRIRSRPPRLPRPRPRPGIPPRP
shrunken log2 fold change: -0.00461

RRIRSRPPRLPRPRPRPGKVPRP
shrunken log2 fold change: -0.0472

RRIRSRPPRLPRPRPRPGLWPRP
shrunken log2 fold change: 0.266

RRIRSRPPRLPRPRPRPGMWPRP
shrunken log2 fold change: 0.0949

RRIRSRPPRLPRPRPRPGNSPRP
shrunken log2 fold change: 0.0554

RRIRSRPPRLPRPRPRPGPKPRP
shrunken log2 fold change: 1.07

RRIRSRPPRLPRPRPRPGQDPRP
shrunken log2 fold change: -0.329

RRIRSRPPRLPRPRPRPGQLPRP
shrunken log2 fold change: -0.17

RRIRSRPPRLPRPRPRPGQSPRP
shrunken log2 fold change: 0.153

RRIRSRPPRLPRPRPRPGQYPRP
shrunken log2 fold change: -0.113

RRIRSRPPRLPRPRPRPGRFPRP
shrunken log2 fold change: 0.406
